Here are results for three molecules from patent publication US11752211B2, “Fatty acids and their use in conjugation to biomolecules” (NOVARTIS AG, priority 2014, dated 2023).

Positions of bridges follow the written chain, without caps; N, C: chain ends. No end group written: not given here.

The target of data set [1] is T1, MC3R (Homo sapiens, UniProt P41968).
T1 construct: expressed in transfected cells; host or cells: HEK293
As to the kind of experiment: MC3 cAMP assay in HEK293/MC3R cells (antagonist protocol). It counts as cell-based. The following applies: HEK293/MC3R stable cell line, against NDP-α-MSH EC80. As for the experimental part: Cells: HEK293/MC3R stable cell line
• I. Aspirate conditioned medium • II. Wash with 2.5 mL of DPBS (Gibco, Cat. No. 14190) • III. Add 2 mL of 0.25% Trypsin-EDTA (Gibco, Cat. No. 25200-056) • IV. Leave the flask for few minutes in incubator, tap the flask a few time to detach cells. • V. Add 10 mL of the complete medium to stop Trypsin-EDTA treatment and mix it well by pipetting softly a few times to re-suspend clumping cells • VI. Transfer 1.5 ml of cells into a new 150 cm flask containing 20 ml of complete media • VII. Transfer the remaining suspension into a 50 mL centrifuge tube • VIII. Spin down at 1200 rpm for 4 mins. Aspirate supernatant • IX. Add 6 mL of the assay buffer to the tube and re-suspend the cells by softly pipetting • X. Transfer 0.5 mL of the suspension into a sample vial for Vi-cell and add another 0.5 ml of PBS. • XI. Count cell number by using a Vi-cell *Record cell density and viability every time • i. Plate cells at 4K/well in 10 ul/well of assay buffer containing IBMX. • ii. Leave the plate in incubator for ˜30 mins before assay is started on suspension cells.
Two step cAMP protocol is followed for cAMP determination.
• I. To 10 ul/well of cells add 5 ul of AgRP prepared at 3× in assay buffer only to antagonist wells. • II. Add 5 ul of buffer to positive control wells (wells that will have NDP-α-MSH). • III. Incubate the plate at 37° C. for ˜20 mins. • IV. […]

Data set [2] is described as follows: In vivo plasma stability of AgRP conjugates, 10 nanomoles per rat iv, AgRP ELISA. The following applies: male Sprague-Dawley rats, 10 nanomoles per rat intravenously. As for the experimental part:
10 nanomoles of conjugate was dissolved in 300 μL of PBS (Phosphate buffered saline) to form Dosing solution. Dosing solution ([…]) was administered intravenously to male Sprague-Dawley rats via lateral tail vein (corresponding to a dose 10 nanomoles per rat). Blood was collected via tail snip at prescribed times after dosing and immediately placed on wet ice. These samples were centrifuged at 4C, with supernatant plasma transferred to a fresh tube for analysis.
Standard curve preparation: The two fatty acid conjugates of examples 27A and 27B and one mature human AgRP peptide were used to make standards. Intermediate stock solutions of each AgRP were prepared by diluting the stock labeled peptides in ELISA sample diluent with casein to 100 ug/ml. For assay, intermediates were diluted to a top standard concentration of 2500 pg/mL and then diluted 2-fold serially to 16 points including a zero dose standard in ELISA sample diluent with bovine serum albumin (BSA). Sample dilution: Plasma samples were diluted 10-fold and then 5-fold serially out to 31,250-fold in ELISA sample diluent with BSA. […] Plates were washed a final time and a chemiluminescent substrate was added to all wells and plates were read immediately on a Spectramx M5 for light output. Data analysis: Raw data was organized and analyzed for basic PK parameters. […]

The target in data set [3] is T2, RXFP1 (Homo sapiens, UniProt Q9HBX9).
T2 construct: expressed in transfected cells; host or cells: HEK293
T2 sequence (Q9HBX9 1-757): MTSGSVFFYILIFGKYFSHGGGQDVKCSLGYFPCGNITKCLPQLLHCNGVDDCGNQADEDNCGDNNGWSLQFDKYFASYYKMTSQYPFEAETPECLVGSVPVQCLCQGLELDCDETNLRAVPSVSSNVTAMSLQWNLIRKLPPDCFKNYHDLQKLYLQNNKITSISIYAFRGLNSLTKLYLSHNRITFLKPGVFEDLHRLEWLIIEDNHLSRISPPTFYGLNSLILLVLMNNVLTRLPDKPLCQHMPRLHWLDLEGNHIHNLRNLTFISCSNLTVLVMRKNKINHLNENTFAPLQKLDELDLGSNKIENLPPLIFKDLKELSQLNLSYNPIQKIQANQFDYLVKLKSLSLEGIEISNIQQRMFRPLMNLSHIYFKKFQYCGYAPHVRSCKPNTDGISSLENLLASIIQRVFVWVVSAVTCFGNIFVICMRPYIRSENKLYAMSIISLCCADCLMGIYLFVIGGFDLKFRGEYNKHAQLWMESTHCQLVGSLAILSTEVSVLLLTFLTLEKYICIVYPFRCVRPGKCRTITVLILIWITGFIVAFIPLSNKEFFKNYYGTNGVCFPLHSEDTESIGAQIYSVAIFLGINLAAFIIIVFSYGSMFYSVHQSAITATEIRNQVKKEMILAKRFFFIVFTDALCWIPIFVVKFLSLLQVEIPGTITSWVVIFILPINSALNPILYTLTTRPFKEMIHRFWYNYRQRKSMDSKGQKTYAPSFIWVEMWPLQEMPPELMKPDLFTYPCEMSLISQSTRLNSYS
As to the kind of experiment: Serelaxin in vitro activity assay #1: cAMP HTRF in RXFP1-HEK293 cells. It counts as cell-based. The following applies: DMEM:F12 media.
Description: Protocol: Day 1: Seeded RXFP1-HEK293/parental HEK293 cells 8k in 10 μl of DMEM: F12 media in solid bottom PDL coated white plates Day 2: Ran assay with the compound Agonist Mode (Overview): • Cells in 10 μl of DMEM:F12 media @37° C. O/N • 5 μl of 2000 μM (4×) of IBMX to the cells for 30 min at 37° C. • 5 μl of 4× compound/Serelaxin to the above for 30 min at 37° C. […]
Read FRET signal—Envision 665 nm/620 nm […]

Data set [4] addresses T2, RXFP1. The data set can be described thus: Serelaxin in vitro activity in presence of bovine serum albumin and human serum #2: cAMP in RXFP1-HEK293 cells. It counts as cell-based.
Description: In Vitro Activity in Presence of Bovine Serum Albumin and Human Serum #2: Materials: DMEM: F12 media (Gibco, cat #11320) IBMX (Sigma, cat #15879) 384 solid bottom white plates (Greiner bio-one, cat #781945) 20,000 dynamic-2 cAMP kit (Cisbio, cat #62AM4PEC) Adenosine 3′, 5′-cyclic monophosphate (Sigma, cat #A9501) Matrix-plate mate plus (used for adding 5 μl of assays reagents) PBS-Gibco (cat #10010-023) 1M HEPES Gibco (cat-15630-080) 1×HBSS Gibco (cat-14175-095) Assay buffer—1×HBSS+10 mM HEPES Bovine serum albumin cat #A2153 (Sigma-Aldrich) Sigma Aldrich—H4522 (Human serum) Conditions:
10% Human Serum (Sigma aldrich—H4522)
• Serelaxin 10 ul stock dissolved in 190 ul of PBS, final concentration is 40 μM, which are diluted 3× fold by transferring 30 ul to 60 ul of the assay buffer 11 point curve, (A2-A12) 12th is zero. Serelaxin-FA conjugate: Stock is (287.79 uM) i.e 2.61 mg/ml MW is 9069 Daltons • Serelaxin 27.798 ul stock dissolved in 172.2 ul of PBS, final concentration is 40 μM, which are diluted 3× fold by transferring 30 ul to 60 ul of the assay buffer 11 point curve, (A2-A12) 12th is zero. BSA Stock Solution Preparation: For 666.66 uM BSA: Made assay buffer 30 mls by dissolving 1.32 gms of BSA For 600 uM BSA: Made assay buffer 30 ms by dissolving 1.18 gms of BSA No BSA, has only assay buffer Human Serum For 4.44% HS: 1.34 mls in 28.66 mls of assay buffer For 4% HS: 1.2 mls in 28.8 mls of assay buffer For 11.11% HS: 3.33 mls in 26.67 mls of assay buffer For 10% HS: 3 mls in 27 mls of assay buffer Procedure: Day 1: Seed 8,000 cells/well of RXFP1-HEK293 and HEK293 (parental) cells in 10 μl/well volume in basal DMEM:F12 media-on solid bottom plate. Incubate cells overnight at 37° C./5% CO2. Day 2: • 1. Wash cells 2× times with 50 ul of assay buffer and were tapped gently on paper towel to get rid of assay buffer after first and second wash • 2. Cells were pretreated with 15 ul of media with IBMX (666.66 uM) containing respective media (600 uM of BSA, 4% BSA, 10% Human serum and assay buffer alone) for 30 minutes at 37° C. • 3. Serially dilute cpds 3× times, 11 point curve—transferring 15 ul of cpds from previous well to subsequent well with 30 ul of PBS, well 11 is PBS only • 4. Dilute (1:10) in assay buffer from step 3 (i.e is 10 ul to 90 ul of assay buffer) • 5. Dilute again from step 4 (1:10) in respective media (666.66 μM of BSA &4.44% & 11.11% Human serum and assay buffer) final con of the BSA is 600 μM and Human serum is 4 & 10% • 6. (*Incubate the cpds for 1 hr at RT in their respective media, before adding to cells) • 7. […] Read FRET on Envision • 12. cAMP std curves were made in their respective media. cAMP Standard Curve Dilutions:
The initial stock of cAMP standard is 1120000 nM • 1. […] Read on HTRF—Envision Analysis: […]
Data set [5] concerns high fat diet-induced obese (DIO) mice. The data set can be described thus: Glucose-stimulated insulin secretion (GSIS) assay. It counts as in vivo. The following applies: single IV dose 45 min before oral glucose 3 g/kg. How it is done:
GSIS test was performed as a measurement of in vivo pancreatic beta cell function following recombinant human Prolactin-inducible Protein (hPIP) in high fat diet-induced obese (DIO) mice. Briefly, mice (m=5-7/group) were fasted overnight (5:00 PM-8:00 AM) and on the test day body weight and blood glucose (BG; determined with Embrace glucose meters) which was designated as baseline timepoint. Next, mice were administered with hPIP (native and FA-conjugated PIP; solution in PBS; administered at 4 ml/kg body weight) or a vehicle-control (PBS) once intravenuously (IV). Forty-five min following the hPIP administration, all mice were dosed with oral glucose (3 g/kg dextrose; solution in PBS; administered at 4 ml/kg body weight). Blood glucose was measured immediately before the glucose load (designated as 0 min time point) and at 15 and 30 min post-glucose. Blood samples were collected for plasma isolation and measurement of plasma insulin were carried out at 0, 15 and 30 min post-glucose.

Data set [6] is described as follows: Pharmacokinetics (PK) assay of hPIP, single IV administration. It counts as in vivo. The following applies: DIO mice. As for the experimental part: Plasma exposure of hPIP were measured in DIO mice following a single IV administration. Briefly, freely-fed DIO mice (n=2) were administered with hPIP (native and FA-conjugated PIP; solution in PBS; administered at 4 ml/kg body weight) once intravenuously (IV). Blood samples were collected and plasma isolated at 0.25, 0.5, 1, 3, 7, 24 and 48 hrs post-dose by and in-house ELISA assay (protocol shown below).

T1 sequence (P41968 whole entry, species assumed): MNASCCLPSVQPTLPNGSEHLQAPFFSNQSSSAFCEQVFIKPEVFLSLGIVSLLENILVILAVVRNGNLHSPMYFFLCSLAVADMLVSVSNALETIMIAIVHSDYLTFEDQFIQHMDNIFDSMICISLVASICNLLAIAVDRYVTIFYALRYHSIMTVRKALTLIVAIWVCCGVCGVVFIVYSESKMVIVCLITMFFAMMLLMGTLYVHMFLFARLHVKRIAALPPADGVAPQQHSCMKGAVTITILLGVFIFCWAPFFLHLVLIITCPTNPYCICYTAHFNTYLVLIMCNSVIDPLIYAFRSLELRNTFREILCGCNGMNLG

“AgRP: mature human AgRP peptide (SSRRCVRLHESCLGQQVPCCDPCATCYCRFFNAFCYCRKLGTAMNPCSRT; disulfide 12-26, 19-37, 5-20, 23-47, 28-35)” returned an EC50 in data set [1] of 12 nM. Further, the “In vivo Plasma stability t½” value in data set [2] turned out to be 4.4 h.

On to “Serelaxin: Recombinant 1-chain human relaxin (DSWMEEVIKLCGRELVRAQIAICGMSTWSCFRALSRKTCGVHCCKNALASYLE; Serelaxin Sequence)”, for which the EC50 in data set [3] came to 1.12 nM; in data set [4] (0% Plasma), 8 nM; in data set [4] (4% Plasma) it was 0.3 nM; in data set [4] (10% Plasma), 0.4 nM; in data set [4] (600 uL BSA), 0.7 nM.

B1: Unconjugated PIP: recombinant human Prolactin-inducible Protein (hPIP), native (protein, UniProt P12273 29-146, looked up)
Prolactin-inducible protein: QDNTRKIIIKNFDIPKSVRPNDEVTAVLAVQTELKECMVVKTYLISSIPLQGAFNYKYTACLCDDNPKTFYWDFYTNRTVQIAAVVDVIRELGICPDDAAVIPIKNNRFYTIEILKVE
For B1, the “Plasma Insulin AUCB (ng/mL*min) compared to the vehicle” value in data set [5] is “+29%”. In data set [6], the Cmax came out at 220 nM and the MRT stood at 12.0 h.
